Results from publication PMC11574045, “A cofactor-induced repressive type of transcription factor condensation can be induced by synthetic peptides to suppress tumorigenesis” (The EMBO Journal, 2024).

Test system: HEK293FT cells transfected with TF library
Test: Screening of TF condensates based on fluorescent puncta
Assay type: cell-based
Conditions: Figure 1B numerical data; TF library screen, one value per transcriptional factor
Summary of the method: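 Puncta scoring used automated confocal imaging of fifty random fields per well, after anti-Flag or anti-GAL4 immunofluorescence (Alexa 488) in PFA-fixed cells. HEK293FT cells carried TF library plasmids delivered with PEI (1.6 μg/ml DNA). At 60 h they were switched for 12 h to glucose-containing or glucose-free medium.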

Molecule | Z score of condensed fraction
FOXA1 (protein, UniProt P55317 1-472, looked up) Hepatocyte nuclear factor …: MLGTVKMEGHETSDWNSYYADTQEAYSSVPVSNMNSGLGSMNSMNTYMTMNTMTTSGNMTPASFNMSYANPGLGAGLSPGAVAGMPGGSAGAMNSMTAAGVTAMGTALSPSGMGAMGAQQAASMNGLGPYAAAMNPCMSPMAYAPSNLGRSRAGGGGDAKTFKRSYPHAKPPYSYISLITMAIQQAPSKMLTLSEIYQWIMDLFPYYRQNQQRWQNSIRHSLSFNDCFVKVARSPDKPGKGSYWTLHPDSGNMFENGCYLRRQKRFKCEKQPGAGGGGGSGSGGSGAKGGPESRKDPSGASNPSADSPLHRGVHGKTGQLEGAPAPGPAASPQTLDHSGATATGGASELKTPASSTAPPISSGPGALASVPASHPAHGLAPHESQLHLKGDPHYSFNHPFSINNLMSSSEQQHKLDFKAYEQALQYSPYGSTLPASLPLGSASVTTRSPIEPSALEPAYYQGVYSRPVLNTS | -0.3489
FOSB (protein, UniProt P53539 1-338, looked up) Protein FosB: MFQAFPGDYDSGSRCSSSPSAESQYLSSVDSFGSPPTAAASQECAGLGEMPGSFVPTVTAITTSQDLQWLVQPTLISSMAQSQGQPLASQPPVVDPYDMPGTSYSTPGMSGYSSGGASGSGGPSTSGTTSGPGPARPARARPRRPREETLTPEEEEKRRVRRERNKLAAAKCRNRRRELTDRLQAETDQLEEEKAELESEIAELQKEKERLEFVLVAHKPGCKIPYEEGPGPGPLAEVRDLPGSAPAKEDGFSWLLPPPPPPPLPFQTSQDAPPNLTASLFTHSEVQVLGDPFPVVNPSYTSSFVLTCPEVSAFAGAQRTSGSDQPSDPLNSPSLLAL | 1.202
FOXB2 (protein, UniProt Q5VYV0 1-432, looked up) Forkhead box protein B2: MPRPGKSSYSDQKPPYSYISLTAMAIQHSAEKMLPLSDIYKFIMERFPYYREHTQRWQNSLRHNLSFNDCFIKIPRRPDQPGKGSFWALHPDCGDMFENGSFLRRRKRFKVLRADHTHLHAGSTKSAPGAGPGGHLHPHHHHHPHHHHHHHAAAHHHHHHHPPQPPPPPPPPPPHMVHYFHQQPPTAPQPPPHLPSQPPQQPPQQSQPQQPSHPGKMQEAAAVAAAAAAAAAAAVGSVGRLSQFPPYGLGSAAAAAAAAAASTSGFKHPFAIENIIGRDYKGVLQAGGLPLASVMHHLGYPVPGQLGNVVSSVWPHVGVMDSVAAAAAAAAAAGVPVGPEYGAFGVPVKSLCHSASQSLPAMPVPIKPTPALPPVSALQPGLTVPAASQQPPAPSTVCSAAAASPVASLLEPTAPTSAESKGGSLHSVLVHS | -0.2645
FOSL1 (protein, UniProt P15407 1-271, looked up) Fos-related antigen 1: MFRDFGEPGPSSGNGGGYGGPAQPPAAAQAAQQKFHLVPSINTMSGSQELQWMVQPHFLGPSSYPRPLTYPQYSPPQPRPGVIRALGPPPGVRRRPCEQISPEEEERRRVRRERNKLAAAKCRNRRKELTDFLQAETDKLEDEKSGLQREIEELQKQKERLELVLEAHRPICKIPEGAKEGDTGSTSGTSSPPAPCRPVPCISLSPGPVLEPEALHTPTLMTTPSLTPFTPSLVFTYPSTPEPCASAHRKSSSSSGDPSSDPLGSPTLLAL | -0.3444
FOXA3 (protein, UniProt P55318 1-350, looked up) Hepatocyte nuclear factor …: MLGSVKMEAHDLAEWSYYPEAGEVYSPVTPVPTMAPLNSYMTLNPLSSPYPPGGLPASPLPSGPLAPPAPAAPLGPTFPGLGVSGGSSSSGYGAPGPGLVHGKEMPKGYRRPLAHAKPPYSYISLITMAIQQAPGKMLTLSEIYQWIMDLFPYYRENQQRWQNSIRHSLSFNDCFVKVARSPDKPGKGSYWALHPSSGNMFENGCYLRRQKRFKLEEKVKKGGSGAATTTRNGTGSAASTTTPAATVTSPPQPPPPAPEPEAQGGEDVGALDCGSPASSTPYFTGLELPGELKLDAPYNFNHPFSINNLMSEQTPAPPKLDVGFGGYGAEGGEPGVYYQGLYSRSLLNAS | 0.4813
FLI1 (protein, UniProt Q01543 1-452, looked up) Friend leukemia integration 1 …: MDGTIKEALSVVSDDQSLFDSAYGAAAHLPKADMTASGSPDYGQPHKINPLPPQQEWINQPVRVNVKREYDHMNGSRESPVDCSVSKCSKLVGGGESNPMNYNSYMDEKNGPPPPNMTTNERRVIVPADPTLWTQEHVRQWLEWAIKEYSLMEIDTSFFQNMDGKELCKMNKEDFLRATTLYNTEVLLSHLSYLRESSLLAYNTTSHTDQSSRLSVKEDPSYDSVRRGAWGNNMNSGLNKSPPLGGAQTISKNTEQRPQPDPYQILGPTSSRLANPGSGQIQLWQFLLELLSDSANASCITWEGTNGEFKMTDPDEVARRWGERKSKPNMNYDKLSRALRYYYDKNIMTKVHGKRYAYKFDFHGIAQALQPHPTESSMYKYPSDISYMPSYHAHQQKVNFVPPHPSSMPVTSSSFFGAASQYWTSPTGGIYPNPNVPRHPNTHVPSHLGSYY | 0.3939
FOXD4L1 (protein, UniProt Q9NU39 1-408, looked up) Forkhead box protein D4-like 1: MNLPRAERPRSTPQRSLRDSDGEDGKIDVLGEEEDEDEVEDEEEEASQKFLEQSLQPGLQVARWGGVALPREHIEGGGPSDPSEFGTEFRAPPRSAAASEDARQPAKPPYSYIALITMAILQSPHKRLTLSGICAFISGRFPYYRRKFPAWQNSIRHNLSLNDCFVKIPREPGHPGKGTYWSLDPASQDMFDNGSFLRRRKRFKRHQLTPGAHLPHPFPLPAAHAALHNPRPGPLLGAPALPQPVPGAYPNTAPGRRPYALLHPHPPRYLLLSAPAYAGAPKKAEGADLATPGTLPVLQPSLGPQPWEEGKGLASPPGGGCISFSIESIMQGVRGAGTGAAQSLSPTAWSYCPLLQRPSSLSDNFAATAAASGGGLRQRLRSHQGRGAGRAPVGRVGAAAVSGGGRGL | -0.9826
FOXD4L4 (protein, UniProt Q8WXT5 1-416, looked up) Forkhead box protein D4-like 4: MNLPRAERPRSTPQRSLRDSDGEDGKIDVLGEEEDEDEVEDEEEEARQQFLEQSLQPGLQVARWGGVALPREHIEGGGGPSDPSEFGTKFRAPPRSAAASEDARQPAKPPYSYIALITMAILQNPHKRLTLSGICAFISGRFPYYRRKFPAWQNSIRHNLSLNDCFVKIPREPGHPGKGNYWSLDPASQDMFDNGSFLRRRKRFKRHQLTPGAHLPHPFPLPAAHAALHNPHPGPLLGAPAPPQPVPGAYPNTAPGRRPYALLHPHPLRYLLLSARVYAGAPKKAEGADLATPAPFPCCSPHLVLSLGRRARVWRRHREADASLSALRVLCKGSGERVQGLRRVCPRPRGATATCSSDHQACCIPKPLPLCCKCPPPLLLGQFCSNSSSIRRTAPTAALPPRARCWAGTCRPRRRC | 0.1205
FOXD4L5 (protein, UniProt Q5VV16 1-416, looked up) Forkhead box protein D4-like 5: MNLPRAERPRSTPQRSLRDSDGEDGKIDVLGEEEDEDEVEDEEEEARQQFLEQSLQPGLQVARWGGVALPREHIEGGGGPSDPSEFGTKFRAPPRSAAASEDARQPAKPPYSYIALITMAILQNPHKRLTLSGICAFISGRFPYYRRKFPAWQNSIRHNLSLNDCFVKIPREPGHPGKGNYWSLDPASQDMFDNGSFLRRRKRFKRHQLTPGAHLPHPFPLPAAHAALHNPHPGPLLGAPAPPQPVPGAYPNTAPGRCPYALLHPHPLRYLLLSAPVYAGAPKKAEGADLATPAPFPCCSPHLVLSLGRRARVWRRHREADASLSALRVLCKGSGERVQGLRRVCPRPRGATATCSSDHQACCIPKPLPLCCKCPPPLLLGQFCSNSSSIRRTAPTAALPPRARCWAGTCRPRRRC | -0.7466
FOSL2 (protein, UniProt P15408 1-326, looked up) Fos-related antigen 2: MYQDYPGNFDTSSRGSSGSPAHAESYSSGGGGQQKFRVDMPGSGSAFIPTINAITTSQDLQWMVQPTVITSMSNPYPRSHPYSPLPGLASVPGHMALPRPGVIKTIGTTVGRRRRDEQLSPEEEEKRRIRRERNKLAAAKCRNRRRELTEKLQAETEELEEEKSGLQKEIAELQKEKEKLEFMLVAHGPVCKISPEERRSPPAPGLQPMRSGGGSVGAVVVKQEPLEEDSPSSSSAGLDKAQRSVIKPISIAGGFYGEEPLHTPIVVTSTPAVTPGTSNLVFTYPSVLEQESPASPSESCSKAHRRSSSSGDQSSDSLNSPTLLAL | -0.8108
